Test results reported in patent publication US9611303B2, “Modified biotin-binding protein” (Japan Tobacco Inc., priority 2009, dated 2017).
Substitutions are numbered along the chain they refer to. Names may count otherwise. “And” between values parts separate entries of the source, which are not always exact repeats. Equal entries are not always repeated. “Also recorded” adds a separate entry of the source.

B1: TM2 A66R-V113R: TM2 with 66th alanine and 113th valine replaced with arginine (protein)
chain: MSDVQSSLTGTWYNELNSKMELTANKDGTLTGKYLSKVGDVYVPYPLSGRYNLQPPAGQGVALGWRVSWENSKIHSATTWSGQFFSESSPVILTQWLLSSSTARGDVWESTLRGNDSFTKTAPTEQQIAHAQLHCRAPRLK
B2: TM2 L97T: TM2 in which the 97th leucine was replaced with threonine (protein)
chain: B1 chain with R66A, L97T, R113V
B3: TM2 W108K: TM2 in which the 108th tryptophan was replaced with lysine (protein)
chain: B1 chain with R66A, W108K, R113V
B4: TM2 N14A: TM2 in which the 14th asparagine was replaced with alanine (protein)
chain: B1 chain with N14A, R66A, R113V
B5: TM2 W108E: TM2 in which the 108th tryptophan was replaced with glutamic acid (protein)
chain: B1 chain with R66A, W108E, R113V
B6: TM2 W69K: TM2 in which the 69th tryptophan was replaced with lysine (protein)
chain: B1 chain with R66A, W69K, R113V
B7: TM2 V113R: TM2 in which the 113th valine was replaced with arginine (protein)
chain: B1 chain with R66A
B8: TM2 A66R: TM2 in which the 66th alanine was replaced with arginine (protein)
chain: B1 chain with R113V
B9: TM2 A66R-L97T: TM2 double mutant A66R and L97T; not in the list of 30 forms, vector named in b302 (protein)
chain: B1 chain with L97T, R113V
B10: TM2 A66R-L97T-V113R: TM2 with A66R, L97T and V113R replacements (protein)
chain: B1 chain with L97T
B11: TM2 L97T-V113R: TM2 with 97th leucine replaced with threonine and 113th valine with arginine (protein)
chain: B1 chain with R66A, L97T

Assay: Purification of LATM2 with biotin-agarose
Format: binding
Conditions: not given
Method: Purification with biotin-agarose (manufactured by Sigma-Aldrich Corp.) was performed by the following procedure. After induced expression of 25 mL of a culture solution of E. coli for each LATM2, the E. coli cells were suspended in 1.5 mL of a 100 mM potassium phosphate buffer (pH 7.0), and then sonicated. To the supernatant of the disrupted cells. 400 μL of biotin-agarose was added, which was followed by upside-down mixing for 1 hr. […]
In TM2 S36A-T78A-D116A, the E. coli cells were suspended in 1.5 mL of 50 mM CAPS (pH 12) containing 50 mM NaCl, and then sonicated. To the disrupted cells, 400 μL of biotin-agarose was added, which was followed by upside-down mixing for 1 hr. The column was sufficiently washed with 50 mM CAPS (pH 12) containing 500 mM NaCl, and elution was then performed with 1 mL of PBS (pH 7.4) containing 10 mM biotin.
In TM2 S36A-D116A, the E. coli cells were suspended in 1.5 mL of a 100 mM potassium phosphate buffer (pH 4.0), and then sonicated. To the pupernatant of the disrupted cells, 400 μL of biotin-agarose was added. Washing was performed with a 100 mM potassium phosphate buffer (pH 4) containing 500 mM NaCl, and elution was performed with 1 mL of PBS (pH 7) containing 10 mM biotin. Biotin binding to LATM2 that has been eluted with an excess amount of biotin was removed by dialysis with a 20 mM potassium phosphate buffer overnight.
(§1) The recovery rate in Table 2 was calculated by dividing the amount of LATM2 protein after purification by the amount of LATM2 protein before purification and was expressed by percent by multiplying the quotient by 100. The degree of purification was the ratio of the amount of LATM2 protein to the total amount of proteins in the purified fraction and was expressed by percent by multiplying the ratio by 100. The recovery rates and the degrees of purification in biotin-agarose were the results after binding at pH 7 and elution with an excess amount of biotin.

Molecule | binding to biotin-agarose | elution from biotin-agarose with an excess amount of biotin
B1 | did not bind | 
B2 | bound to biotin-agarose | not eluted

Same assay, conditions: Biotin-agarose, binding at pH 7, recovery with 10 mM biotin

Molecule | Recover rate (%)
B3 | 95
B4 | 50
B5 | 95
B6 | 50
B7 | 30
B8 | 50
B9 | 80
B10 | 30
B11 | 70
B1 | 0
B2 | 0

Same assay, conditions: Biotin-agarose, elution with acetic acid

Molecule | recover rate by elution with acetic acid
B6 | recover rate: 95%

Same assay, conditions: binding at pH 7, recovery with 10 mM biotin; FT = flow-through

Molecule | Note (Biotin-agarose)
B1 | To FT
B2 | not eluted

Assay: Subunit association by FPLC on Sephacryl S-100HR
Format: physicochemical
Conditions: FPLC
Method: In order to analyze the subunit association conditions of LATM2, the molecular weight of each LATM2s was measured by FPLC. Sephacryl S-100HR (manufactured by GE Healthcare) was used as a column, a Gel Filtration Calibration Kit LMW (manufactured by GE Healthcare) was used as molecular weight markers, and 50 mM potassium phosphate containing 500 mM NaCl was used as a buffer.
The positions of the peaks of eluted tetramer were defined to be 44 to 47 mL after injection of WT-TM2 as a control. The peak of an eluted monomer appeared at around 63 to 66 mL and the peak of an eluted dimer appeared at around 51 to 54 mL, from result of loading the molecular weight markers.

Molecule | share present as tetramer [%] | share present as dimer [%]
B3 | 100 | 
B5 | 33 | 67

Same assay, conditions: Sephacryl S-100HR, 50 mM potassium phosphate, 500 mM NaCl

Molecule | Structure (identified by FPLC)
B3 | Tetramer
B4 | Tetramer
B5 | dimer; also recorded: tetramer,
B6 | Tetramer
B7 | Tetramer
B11 | Tetramer

Same assay, conditions: Sephacryl S-100HR, 50 mM potassium phosphate, 500 mM NaCl; dimer peak

Molecule | Structure (identified by FPLC)
B9 | dimer,
B10 | dimer,

Same assay, conditions: Sephacryl S-100HR, 50 mM potassium phosphate, 500 mM NaCl; monomer peak

Molecule | Structure (identified by FPLC)
B8 | monomer
B10 | monomer

Same assay, conditions: Sephacryl S-100HR, 50 mM potassium phosphate, 500 mM NaCl; tetramer peak

Molecule | Structure (identified by FPLC)
B8 | tetramer,

Same assay, conditions: of the total, FPLC

Molecule | share present as monomer
B8 | about 30%
B9 | 90%
B10 | 64.8%

Same assay, conditions: of the total, FPLC; listed as A66R

Molecule | share present as monomer [%]
B8 | 30

Same assay, conditions: tetramer 44 to 47 mL, dimer 51 to 54 mL, monomer 63 to 66 mL

Molecule | Sephacryl (mL), elution peak position
B3 | 45.14 mL
B4 | 46.24 mL
B5 | 44.69 mL and 52.30, mL
B6 | 45.09 mL
B7 | 46.49 mL
B11 | 45.42 mL

Same assay, conditions: tetramer 44 to 47 mL, dimer 51 to 54 mL, monomer 63 to 66 mL; dimer peak

Molecule | Sephacryl (mL), elution peak position
B9 | 54.49, mL
B10 | 54.38, mL

Same assay, conditions: tetramer 44 to 47 mL, dimer 51 to 54 mL, monomer 63 to 66 mL; monomer peak

Molecule | Sephacryl (mL), elution peak position [mL]
B8 | 66.15
B10 | 67.21

Same assay, conditions: tetramer 44 to 47 mL, dimer 51 to 54 mL, monomer 63 to 66 mL; tetramer peak

Molecule | Sephacryl (mL), elution peak position
B8 | 45.50, mL

Assay: Purification of LATM2 with 2-iminobiotin-agarose
Format: binding
Conditions: not given
Method: LATM2 was purified through a column charged with 2-iminobiotin-agarose (manufactured by Sigma-Aldrich Corp.) in accordance with the method by Hofmann, et al., (1980). IPTG was added to 25 mL of a culture solution of E. coli transformed with each LATM2 in a final concentration of 1 mM to induce expression. The E. coli cells were collected by centrifugation, suspended in 1.5 mL of 50 mM CAPS (pH 12) containing 50 mM NaCl, and then sonicated. To the supernatant of the disrupted cells, 500 μL of 2-iminobiotin-agarose was added, which was then packed in a column. The column was sufficiently washed with 50 mM CAPS (pH 12) containing 500 mM NaCl, and elution was then performed with 50 mM NH4OAC (pH 4).
as §1

Molecule | binding to 2-iminobiotin-agarose
B7 | did not bind
B8 | did not bind
B9 | did not bind
B10 | did not bind
B11 | did not bind
B1 | did not bind

Same assay, conditions: FT = column flow-through fraction

Molecule | Note (Iminobiotin-agarose)
B5 | To FT
B6 | To FT
B7 | To FT
B8 | To FT
B9 | To FT
B10 | To FT
B11 | To FT
B1 | To FT
B2 | To FT

Same assay, conditions: Iminobiotin-agarose; binding at pH 12, elution with 50 mM NH4OAC (pH 4)

Molecule | Recovery rate (%)
B3 | 30
B4 | 10
B5 | 5
B6 | 5
B7 | 0
B8 | 0
B9 | 0
B10 | 0
B11 | 0
B1 | 0
B2 | 0

Same assay, conditions: purification with 2-iminobiotin-agarose

Molecule | recovery rates compared with WT
B3 | inferior to WT
B4 | inferior to WT
B5 | inferior to WT
B6 | inferior to WT
